Drawing on patent publication US9988614, this text covers activity (fidelity index) for one substance.

For series [1], the system named is T1, BbsI wild type (subunits A and B) (Brevibacillus laterosporus).
T1 sequence 1: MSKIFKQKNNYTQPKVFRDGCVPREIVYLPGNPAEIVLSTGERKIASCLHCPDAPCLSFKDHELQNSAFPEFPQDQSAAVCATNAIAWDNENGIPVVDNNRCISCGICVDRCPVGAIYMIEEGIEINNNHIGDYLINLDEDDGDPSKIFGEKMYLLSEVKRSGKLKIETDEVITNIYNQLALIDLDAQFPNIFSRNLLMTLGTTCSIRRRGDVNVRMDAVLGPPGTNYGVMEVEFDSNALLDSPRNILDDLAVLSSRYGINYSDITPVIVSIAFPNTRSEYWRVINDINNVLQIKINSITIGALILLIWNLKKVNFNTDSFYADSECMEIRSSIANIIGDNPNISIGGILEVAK
T1 sequence 2: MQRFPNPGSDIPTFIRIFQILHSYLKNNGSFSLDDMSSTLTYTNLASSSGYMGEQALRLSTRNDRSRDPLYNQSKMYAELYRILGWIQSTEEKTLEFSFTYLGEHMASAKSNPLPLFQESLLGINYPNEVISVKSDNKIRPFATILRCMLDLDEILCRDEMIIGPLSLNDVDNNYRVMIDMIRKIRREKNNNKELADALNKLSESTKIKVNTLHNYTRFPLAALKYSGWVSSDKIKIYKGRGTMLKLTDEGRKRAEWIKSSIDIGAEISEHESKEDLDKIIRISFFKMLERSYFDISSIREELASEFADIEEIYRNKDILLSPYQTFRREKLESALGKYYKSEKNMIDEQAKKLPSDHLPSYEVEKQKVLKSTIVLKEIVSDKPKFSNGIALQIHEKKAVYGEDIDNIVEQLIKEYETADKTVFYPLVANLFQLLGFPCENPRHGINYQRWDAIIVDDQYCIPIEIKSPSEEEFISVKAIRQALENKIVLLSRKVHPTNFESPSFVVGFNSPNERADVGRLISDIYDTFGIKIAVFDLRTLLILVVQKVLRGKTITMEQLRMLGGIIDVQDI
Briefly: cleavage_in_vitro. The note with it: NEB4 buffer, relative activity 1; FI=32 in NEB1 (1/2), 120 in NEB2 (1), 64 in NEB3 (1/4); substrate sequence not stated.

The subject of series [2] is T2, BbsI P442A (subunit B variant) P442A (subunit B) (Brevibacillus laterosporus).
T2 sequence 1: T1 sequence 1
T2 sequence 2: T1 sequence 2 with P442A
Briefly: cleavage_in_vitro. The note with it: NEB4 buffer, relative activity 1; FI>=120 in NEB1 (1/4), >=32 in NEB2 (1/16), >=2 in NEB3 (1/256); reduced star activity.

Substitutions are numbered along the chain they refer to. Bounds are passed on as bounds.

Take “DNA substrate containing BbsI recognition site”: the activity (fidelity index) is 64 in series [1] and above 500 in series [2].
